# Measurements as given in the supplement of paper PMC11908140.
# B1: library; numbered along this chain (parent)
# chain: MRKPRAAVGSGHRKQAASQEGRQKHAKNNSQAKPSACDGLARQPEEVVLQASVSSYHLFRDVAEVTAFRGSLLSWYDQEKRDLPWRRRAEDEMDLDRRAYAVWVSEVMLQQTQVATVINYYTGWMQKWPTLQDLASASLEEVNQLWAGLGYYSRGRRLQEGARKVVEELGGHMPRTAETLQQLLPGVGRYTAGAIASIAFGQATGVVDGNVARVLCRVRAIGADPSSTLVSQQLWGLAQQLVDPARPGDFNQAAMELGATVCTPQRPLCSQCPVESLCRARQRVEQEQLLASGSLSGSPDVEECAPNTGQCHLCLPPSEPWDQTLGVVNFPRKASRKPPREESSATCVLEQPGALGAQILLVQRPNSGLLAGLWEFPSVTWEPSEQLQRKALLQELQRWAGPLPATHLRHLGEVVHTFSHIKLTYQVYGLALEGQTPVTTVPPGARWLTQEEFHTAAVSTAMKKVFRVYQGQQPGTCMGSKRSQVSSPCSRKKPRMGQQVLDNFFRSHISTDAHSLNSAAQ
# Variants of: B1
# Experiment: 8OG:A repair function score (normalized; synonymous = 0, nonsense = -1) (normalized log-likelihood score); higher = more repair activity (WT-like)
# Details: with 8OG:A DNA repair reporter (GFP) in HEK-293 MUTYH KO cells
# Procedure, shortened: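 Lentiviral MUTYH cDNA NNN codon-scan libraries were expressed in MUTYH knockout HEK-293 cells with 10 pg/ml doxycycline, and the cells received an 8OG:A GFP repair reporter together with mCherry. At 72 h, viable mCherry+ cells went into GFP+ (repair) or GFP− bins, three replicates per tile, before tile amplicons were sequenced. A repair function score was then built from per-tile Rosace fitness scores, anchored on the synonymous and nonsense distributions. Synonymous medians sat at 0 and nonsense at -1, and variants under 300 counts per million at the start were left out.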
# 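Also: cells sorted at 72 h after reporter transfection.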
row,Variant,8OG:A repair function score
1,MRKPRNAVGSGHRKQAASQEGRQKHAKNNSQAKPSACDGLARQPEEVVLQASVSSYHLFRDVAEVTAFRGSLLSWYDQEKRDLPWRRRAEDEMDLDRRAYAVWVSEVMLQQTQVATVINYYTGWMQKWPTLQDLASASLEEVNQLWAGLGYYSRGRRLQEGARKVVEELGGHMPRTAETLQQLLPGVGRYTAGAIASIAFGQATGVVDGNVARVLCRVRAIGADPSSTLVSQQLWGLAQQLVDPARPGDFNQAAMELGATVCTPQRPLCSQCPVESLCRARQRVEQEQLLASGSLSGSPDVEECAPNTGQCHLCLPPSEPWDQTLGVVNFPRKASRKPPREESSATCVLEQPGALGAQILLVQRPNSGLLAGLWEFPSVTWEPSEQLQRKALLQELQRWAGPLPATHLRHLGEVVHTFSHIKLTYQVYGLALEGQTPVTTVPPGARWLTQEEFHTAAVSTAMKKVFRVYQGQQPGTCMGSKRSQVSSPCSRKKPRMGQQVLDNFFRSHISTDAHSLNSAAQ [A6N],-0.0265
2,MRKPRAAVGSGHRKQAASQEGRQKHAKNNSQAKPSACDGLARQPEEVVLQASVSSYHLFRDVAEVTAFRGSLLSWYDQEKRDLPWRRRAEDEMDLDRRAYAVWVSEVMLQQTQVATVINYYTGWMQKWPTLQDLASASLEEVNQLWAGLGYYSRGRRLQEGARKVVEELGGHMPRTAETLQQLLPGVGRYTAGAIASIAFGQATGVVDGNVARVLCRVRAIGADPSSTLVSQQLWGLAQQLVDPARPGDFNQAAMELGATVCTPQRPLCSQCPVESLCRARQRVEQEQLLASGSLSGSPDVEECAPNTGQCHLCLPPSEPWDQTLGVVNFPRKASRKPPREESSATCVLEQPGALGAQILLVQRPNSGLLAGLWEFPWVTWEPSEQLQRKALLQELQRWAGPLPATHLRHLGEVVHTFSHIKLTYQVYGLALEGQTPVTTVPPGARWLTQEEFHTAAVSTAMKKVFRVYQGQQPGTCMGSKRSQVSSPCSRKKPRMGQQVLDNFFRSHISTDAHSLNSAAQ [S378W],-0.346
3,MRKPRAAVGSGHRKQAASQEGRQKHAKNNSQAKPSACDGLARQPEEVVLQASVSSYHLFRDVAEVTAFRGSLLSWYDQEKRDLPWRRRAEDEMDLDRRAYAVWVSEVMLQQFQVATVINYYTGWMQKWPTLQDLASASLEEVNQLWAGLGYYSRGRRLQEGARKVVEELGGHMPRTAETLQQLLPGVGRYTAGAIASIAFGQATGVVDGNVARVLCRVRAIGADPSSTLVSQQLWGLAQQLVDPARPGDFNQAAMELGATVCTPQRPLCSQCPVESLCRARQRVEQEQLLASGSLSGSPDVEECAPNTGQCHLCLPPSEPWDQTLGVVNFPRKASRKPPREESSATCVLEQPGALGAQILLVQRPNSGLLAGLWEFPSVTWEPSEQLQRKALLQELQRWAGPLPATHLRHLGEVVHTFSHIKLTYQVYGLALEGQTPVTTVPPGARWLTQEEFHTAAVSTAMKKVFRVYQGQQPGTCMGSKRSQVSSPCSRKKPRMGQQVLDNFFRSHISTDAHSLNSAAQ [T112F],-1.17
4,MRKPRAAVGSGHRKQAASQEGRQKHAKNNSQAKPSACDGLARQPEEVVLQASVSSYHLFRDVAEVTAFRGSLLSWYDQEKRDLPWRRRAEDEMDLDRRAYAVWVSEVMLQQTQVATVINYYTGWMQKWPTLQDLASASLEEVNQLWAGLGYYSRGRRLQEGARKVVEELGGHMPRTAETLQQLLPGVGRYTAGAIASIAFGQATGVVDGNVARVLCRVRAIGADPSSTLVSQQLWGLAQQLVDPARPGDFNQAAMELGATVCTPQRPLCSQCPVESLCRARQRVEQEQLLASGSLSGSPDVEECAPNTGQCHLCLPPSEPWDQTLGVVNFPRKASRKPPREESSATCVLEQPGALGAQILLVQRPNSGLLAGLWEFPSVTWEPSEQLQRKALLQELQRWAGPLPATHLRHLGEVVHTFSHIKLTYQVYGLALEGQTPVTTVPPGARWLTQEEFHTAAVSTAFKKVFRVYQGQQPGTCMGSKRSQVSSPCSRKKPRMGQQVLDNFFRSHISTDAHSLNSAAQ [M462F],-0.254
5,MRKPRAAVGSGHRKQAASQEGRQKHAKNNSQAKPSACDGLARQPEEVVLQASVSSYHLFRDVAEVTAFRGSLLSWYDQEKRDLPWRRRAEDEMDLDRRAYAVWVSEVMLQQTQVATVINYYTGWMQKWPTLQDLASASLEEVNQLWAGLGYYSRGRRLQEGARKVVEELGGHMPRTAETLQQLLPGVGRYTAGAIASIAFGQATGVVDGNVARVLCRVRAIGADPSSTLVSQQLWGLAQQLVDPARPGDFNQAAMELGATVCTPQRPLCSQCPVESLCRARQRWEQEQLLASGSLSGSPDVEECAPNTGQCHLCLPPSEPWDQTLGVVNFPRKASRKPPREESSATCVLEQPGALGAQILLVQRPNSGLLAGLWEFPSVTWEPSEQLQRKALLQELQRWAGPLPATHLRHLGEVVHTFSHIKLTYQVYGLALEGQTPVTTVPPGARWLTQEEFHTAAVSTAMKKVFRVYQGQQPGTCMGSKRSQVSSPCSRKKPRMGQQVLDNFFRSHISTDAHSLNSAAQ [V284W],-0.0406
6,MRKPRAAVGSGHRKQAASQEGRQKHAKNNSQAKPSACDGLARQPEEVVLQASVSSYHLFRDVAEVTAFRGSLLSWYDQEKRDLPWRRRAEDEMDLDRRAYAVWVSEVMLQQTQVATVINYYTGWMQKWPTLQDLASASLEEVNQLWAGLGYYSRGRRLQEGARKVVEELGGHMPRTAETLQQLLPGVGRYTAGAIASIAFGQATGVVDGNVARVLCRVRAIGADPSSTLVSQQLWGLAQQLVDPARPGDFNQAAMELGATVCTPQRPLCSQCPVESLCRARQRVEQEQLQASGSLSGSPDVEECAPNTGQCHLCLPPSEPWDQTLGVVNFPRKASRKPPREESSATCVLEQPGALGAQILLVQRPNSGLLAGLWEFPSVTWEPSEQLQRKALLQELQRWAGPLPATHLRHLGEVVHTFSHIKLTYQVYGLALEGQTPVTTVPPGARWLTQEEFHTAAVSTAMKKVFRVYQGQQPGTCMGSKRSQVSSPCSRKKPRMGQQVLDNFFRSHISTDAHSLNSAAQ [L290Q],-0.0401
7,MRKPRAAVGSGHRKQAASQEGRQKHAKNNSQAKPSACDGLARQPEEVVLQASVSSYHLFRDVAEVTAFRGSLLSWYDQEKRDLPWRRRAEDEMDLDRRAYAVWVSEVMLQQTQVATVINYYTGWMQKWPTLQDLASASLEEVNQLWAGLGYYSRGRRLQEGARKVVEELGGHMPRTAETLQQLLPGVGRYTAGAIASIAFGQATGVVDGNVARVLCRVRAIGADPSSTLVSQQLWGLAQQLVDPARPGDFNQAAMELGATVCTPQRPLCSQCPVESLCRARQRVEQEQLLASGSLSGSPDVEECAPNTGQCHLCLPPSEPWDQTLGVVNFPRKASRKPPREESSATCVLEQPGALGAQILLVQRPNSGLLAGLWEFPSVTWEPSEQLQRKALLQELQRWAGPLPATHLRHLGEVVHTFSHIKLTYQVYGLALEGQTPVTTVPPGARWLTQEEFHTAAVSTAMKKVFRVYQGQQPGTCMGSKRSQVSSPCSRKKPRMGQQVFDNFFRSHISTDAHSLNSAAQ [L501F],0.0198
8,MRKPRAAVGSGHRKQAASQEGRQKHAKNNSQAKPSACDGLARQPEEVVLQASVSSYHLFRDVAEVTAFRGSLLSWYDQEKRDLPWRRRAEDEMDLDRRAYAVWVSEVMLQQTQVATVINYYTGWMQKWPTLQDLASASLEEVNQLWAGLGYYSRGRRLQEGARKVVEELGGHMPRTAETLQQLLPGVGRYTAGAIASIAFGQATGVVDGNVARVLCRVRAIGADPSSTLVSQQLWGLAQQLVDPARPGDFNQAAMELGATVCVPQRPLCSQCPVESLCRARQRVEQEQLLASGSLSGSPDVEECAPNTGQCHLCLPPSEPWDQTLGVVNFPRKASRKPPREESSATCVLEQPGALGAQILLVQRPNSGLLAGLWEFPSVTWEPSEQLQRKALLQELQRWAGPLPATHLRHLGEVVHTFSHIKLTYQVYGLALEGQTPVTTVPPGARWLTQEEFHTAAVSTAMKKVFRVYQGQQPGTCMGSKRSQVSSPCSRKKPRMGQQVLDNFFRSHISTDAHSLNSAAQ [T263V],-0.0463
9,MRKPRAAVGSGHRKQAASQEGRQKHAKNNSQAKPSACDGLARQPEKVVLQASVSSYHLFRDVAEVTAFRGSLLSWYDQEKRDLPWRRRAEDEMDLDRRAYAVWVSEVMLQQTQVATVINYYTGWMQKWPTLQDLASASLEEVNQLWAGLGYYSRGRRLQEGARKVVEELGGHMPRTAETLQQLLPGVGRYTAGAIASIAFGQATGVVDGNVARVLCRVRAIGADPSSTLVSQQLWGLAQQLVDPARPGDFNQAAMELGATVCTPQRPLCSQCPVESLCRARQRVEQEQLLASGSLSGSPDVEECAPNTGQCHLCLPPSEPWDQTLGVVNFPRKASRKPPREESSATCVLEQPGALGAQILLVQRPNSGLLAGLWEFPSVTWEPSEQLQRKALLQELQRWAGPLPATHLRHLGEVVHTFSHIKLTYQVYGLALEGQTPVTTVPPGARWLTQEEFHTAAVSTAMKKVFRVYQGQQPGTCMGSKRSQVSSPCSRKKPRMGQQVLDNFFRSHISTDAHSLNSAAQ [E46K],-0.0383
10,MRKPRAAVGSGHRKQAASQEGRQKHAKNNSQAKPSACDGLARQPEEVVLQASVSSYHLFRDVAEVTAFRGSLLSWYDQEKRDLPWRRRAEDEMDLDRRAYAVWVSEVMLQQTQVATVINYYTGWMQKWPTLQDLASASLEEVNQLWAGLGYYSRGRRLQEGARKVVEELGGHMPRTAETLQQLLPGVGRYTAGAIASIAFGQATGVVDGNVARVLCRVRAIGADPSSTLVSQQLWGLAQQLVDPARPGDFNQAAMELGATVCTPQRPLCSQCPVESLCRARQRVEQEQLLASGSLSGSPDVEECAPNTGQCHLCLPPSEPWDQTLGVVNFPRKASRKPPREESSATCVLEQPGALGAQILLVQRPNSGLLAGLWEFPSVTWEPSEQLQRKALLQELQRWAGPLPATHLRHLGEVVHTFSHIKLTYQVYGLALEGQTPVTTVPPGARWLTQEEFHTAAVSTAMKKVFRVYQGQQPGPCMGSKRSQVSSPCSRKKPRMGQQVLDNFFRSHISTDAHSLNSAAQ [T476P],-0.0234
11,MRKPRAAVGSGHRKQAASQEGRQKHAKNNSQAKPSACDGLDRQPEEVVLQASVSSYHLFRDVAEVTAFRGSLLSWYDQEKRDLPWRRRAEDEMDLDRRAYAVWVSEVMLQQTQVATVINYYTGWMQKWPTLQDLASASLEEVNQLWAGLGYYSRGRRLQEGARKVVEELGGHMPRTAETLQQLLPGVGRYTAGAIASIAFGQATGVVDGNVARVLCRVRAIGADPSSTLVSQQLWGLAQQLVDPARPGDFNQAAMELGATVCTPQRPLCSQCPVESLCRARQRVEQEQLLASGSLSGSPDVEECAPNTGQCHLCLPPSEPWDQTLGVVNFPRKASRKPPREESSATCVLEQPGALGAQILLVQRPNSGLLAGLWEFPSVTWEPSEQLQRKALLQELQRWAGPLPATHLRHLGEVVHTFSHIKLTYQVYGLALEGQTPVTTVPPGARWLTQEEFHTAAVSTAMKKVFRVYQGQQPGTCMGSKRSQVSSPCSRKKPRMGQQVLDNFFRSHISTDAHSLNSAAQ [A41D],-0.0561
12,MRKPRAAVGSGHRKQAASQEGRQKHAKNNSQAKPSACDGLARQPEEVVLQASVSSYHLFRDVAEVTAFRGSLLSWYDQEKRDLPWRRRAEDEMDLDRRAYAVWVSEVMLQQTQVATVINYYTGWMQKWPTLQDLASASAEEVNQLWAGLGYYSRGRRLQEGARKVVEELGGHMPRTAETLQQLLPGVGRYTAGAIASIAFGQATGVVDGNVARVLCRVRAIGADPSSTLVSQQLWGLAQQLVDPARPGDFNQAAMELGATVCTPQRPLCSQCPVESLCRARQRVEQEQLLASGSLSGSPDVEECAPNTGQCHLCLPPSEPWDQTLGVVNFPRKASRKPPREESSATCVLEQPGALGAQILLVQRPNSGLLAGLWEFPSVTWEPSEQLQRKALLQELQRWAGPLPATHLRHLGEVVHTFSHIKLTYQVYGLALEGQTPVTTVPPGARWLTQEEFHTAAVSTAMKKVFRVYQGQQPGTCMGSKRSQVSSPCSRKKPRMGQQVLDNFFRSHISTDAHSLNSAAQ [L139A],-0.241
